B1: PRT-473 (protein)
chain: MVTSVWTKGVTPPTDFRKIVDGNIAYYHAPYKAGQGWYDITKTFNGKDDLLCGAATAGNMLHWWFDQNKEQIENYLKKHPEKQKINFNGEQMFDVKEAIDTKDSQLDSKLFEYFKEKAFPYLSTKHLGVFPDHVIDMFINGYRLSLTNHGPTPVKRGSKDPRGGIFDAVFTRGDQSKLLTNRHDFKEKTLKEISDLIKQELTEGKALGISHTYANVRINHVINLWGADFDAEGNLEAIYVTDSDSNASIGMKKYFVGVNSNGKVAISAKEIEEDNIGAQVLGLFTLSTGQDIWNQTNLEHHHHHH
B2: PRT-489 (protein)
chain: MVTSVWTKGVTPPANFTQGEDVFHAPYVANQGWYDITKTFNGKDNLLCGAATAGNMLHWWFDQNKDQIERYLKEHPEKQKIIFNNQELFDLKAAIDTKDSQTDSKLFEYFKEKAFPYLSTKHLGVFPDHVLDMFINGYRLSLTNHGPTPVKEGSKDKRGGIFDAVFTRGVQSKLLTSRHDLKNKTLKEISDLIKQELTEGKALGLSHTYANVRINHVINLWGADFDSEGNLKAIYVTDSDTNASIGMKKYFVGVNSAGKVAISAKEIKEDNIGAQVLGLFTLSTGQDIWNQTNLEHHHHHH
B3: PRT-510 (protein)
chain: MITSVWTKGVTPPTDFRKIVDGNIAYYHAPYKAGQGWYDITKAFDGGDDLLCGAATAGNMLHWWFDQNKEEIEAYLKKHPEKQKIMFGDQELLDVRKVINTKDSQTNSALFNYFKDKAFPNLSARRLGVMPDLVLDMFINGYYLNVYKTQTTDVNRTYQTKDRRGGIFDAVFTRGDQSKLLTERHDLKNKTLKEISDLIKQELTEGKALGLSHTYANVRINHVINLWGADFDSNGNLEAIYVTDSDSNASIGMKKYFVGVNSAGKVAISAKEIKEDNIGAQVLGLFTLSTGQDIWNQTNLEHHHHHH
B4: PRT-450 (protein)
chain: MVTSVWTKGVTPPTDFRKIVDGNIAYYHAPYKAGQGWYDITKAFDGGDDLLCGAATAGNMLHWWFDQNKDQIEAYLKEHPEKQKINFNGEQMFDVKEAIDTKDDQTNSELFNYFKEKAFPYLSTKHLGVFPDHVLDMFINGYRLSLTNHGPTPVKEGSKDPRGGIFDAVFTRGDQSKLLTSRHDLKNKTLKEISDLIKQELTEGKALALSHTYANVRINHVINLWGADFDSNGNLEAIYVTDSDSNASIGMKKYFVGVNSAGKVAISAKEIEDDNIGAQVLGLFTLSTGQDIWNQTNLEHHHHHH
B5: PRT-462 (protein)
chain: MVTSVWTKGVTPPTDFRKIVDGNIAYYHAPYKAGQGWYDITKAFDGGDDLLCGAATAGNMLHWWFDQNKDQIERYLKEHPEKQKINFNGEQMFDVKEAIDTKDSQTNSELFNYFKEKAFPYLSTKHLGVFPDHVLDMFINGYRLSLTNHGPTPVKEGSKDPRGGIFDAVFTRGDQSKLLTSRHDLKNKTLKEISDLIKQELTEGKALGLSHTYANVRINHVINLWGADFDSEGNLKAIYVTDSDSNASIGMKKYFVGVNSAGKVAISAKEIKEDNIGAQVLGLFTLSTGQDIWNQTNLEHHHHHH
B6: PRT-521 (protein)
chain: MVTSVWTKGVTPPADFTQGEDVFHAPYVANQGWYDITKTFNGKDNLLCGAATAGNMLHWWFDQNKEYIEAYLKKHPEKQKIIFNNQELFDLKAAINTKGSQKNSELFNYFRDKAFPNLSARRLGVFPDLVLDMFINGYYLNVTKTQTTDVNRTYQEKDKRGGIFDAVFTRGVQSKLLTSRHDLKNKGLKEISDLIKQELTEGKALGLSHTYANVRINHVINLWGADFDSDGNLKAIYVTDSDTNASIGMKKYFVGVNSAGKVAISAKEIKEDNIGAQVLGLFTLSTGQDIWNQTNLEHHHHHH
B7: PRT-484 (protein)
chain: MVTSVWTKGVTPPTDFRKIVDGNIAYYHAPYKAGQGWYDITKAFDGGDNLLCGAATAGNMLHWWFDQNKDQIEAYLKEHPEKQKIIFNNQELFDLKAAIDTKDDQTNSELFNYFKEKAFPYLSTKHLGVFPDHVLDMFINGYRLSLTNHGPTPVKEGSKDKRGGIFDAVFTRGVQSKLLTSRHDLKNKTLKEISDLIKQELTEGKALALSHTYANVRINHVINLWGADFDSNGNLEAIYVTDSDTNASIGMKKYFVGVNSAGKVAISAKEIEDDNIGAQVLGLFTLSTGQDIWNQTNLEHHHHHH
B8: PRT-515 (protein)
chain: MITSVWTKGVTPPTDFIKGEDVFHAPYKAGQGWYDITKAFDGGDDLLCGAATAGNMLHWWFDQNKEEIEAYLKKHPEKQKIMFGDQELLDVRKVINTKDSQTNSALFNYFKDKAFPNLSARRLGVMPDLVLDMFINGYYLNVYKTQTTDVNRQEQTKDRRGGIFDAVFGRGDQTKLLTERHDLKNKTLNEISQLIKQELTEGKALGLSHTYANVRINHVINLWGADFDAEGNLEAIYVTDSDSNASIGMKKYFVGVNSAGKVAISAKEIKEDNIGAQVLGLFTLSTGQKIWNKTNLEHHHHHH
B9: PRT-470 (protein)
chain: MVTSVWTKGVTPPTDFIYGEDVLHAPYKAGQGWYDITKTFNGKDDLLCGAATAGNMLHWWFDQNKEQIENYLKKHPEKQKINFNGEQMFDVKEAIDTKDSQLDSKLFEYFKEKAFPYLSTKHLGVFPDHVIDMFINGYRLSLTNHGPTPVKRGSKDPRGGIFDAVFTRGDQSKLLTNRHDFKEKTLKEISDLIKQELTEGKALGISHTYANVRINHVINLWGADFDAEGNLEAIYVTDSDSNASIGMKKYFVGVNSNGKVAISAKEIEEDNIGAQVLGLFTLSTGQDIWNQTNLEHHHHHH
B10: PRT-472 (protein)
chain: MVTSVWTKGVTPPTDFIYGEDVLHAPYKAGQGWYDITKTFNGKDDLLCGAATAGNMLHWWFDQNKEQIENYLKKHPEKQKINFNGEQMFDVKEAIDTKDSQLDSKLFEYFKEKAFPYLSTKHLGVFPDHVIDMFINGYRLSLTNHGPTPVKRGSKDPRGGIFDAVFTRGDQSKLLTNRHDLKNKTLKEISDLIKQELTEGKALGISHTYANVRINHVINLWGADFDAEGNLEAIYVTDSDSNASIGMKKYFVGVNSNGKVAISAKEIEEDNIGAQVLGLFTLSTGQDIWNQTNLEHHHHHH
B11: PRT-636 (protein)
chain: MQITSVWTKGVTPLTMDQFRNYNYDVIHAPYKPGQGWYDITKAFDGKDNLLCGAATAGNMLHWWFDQNKTEIEAYLSKHPEKQKIIFNNQELFDLKAAIDTKDSQTNSQLFNYFRDKAFPNLSARQLGVMPDLVLDMFINGYYLNVFKTQSTDVNRPYQDKDKRGGIFDAVFTRGDQTTLLTARHDLKNKGLNDISTIIKQELTEGKALALSHTYANVSISHVINLWGADFNAEGNLEAIYVTDSDANASIGMKKYFVGINAHGHVAISAKKIEGENIGAQVLGLFTLSSGKDIWQKLSLEHHHHHH
B12: PRT-447 (protein)
chain: MVTSVWTKGVTPPTDFIKGEDVFHAPYKAGQGWYDITKAFDGGDDLLCGAATAGNMLHWWFDQNKDQIEAYLKEHPEKQKINFNGEQMFDVKEAIDTKDDQTNSELFNYFKEKAFPYLSTKHLGVFPDHVLDMFINGYRLSLTNHGPTPVKEGSKDPRGGIFDAVFTRGDQSKLLTSRHDFKEKTLKEISDLIKQELTEGKALALSHTYANVRINHVINLWGADFDSNGNLEAIYVTDSDSNASIGMKKYFVGVNSAGKVAISAKEIEDDNIGAQVLGLFTLSTGQDIWNQTNLEHHHHHH
B13: PRT-492 (protein)
chain: MVTSVWTKGVTPPTDFRKIVDGNIAYYHAPYKAGQGWYDITKAFDGGDNLLCGAATAGNMLHWWFDQNKEQIENYLKKHPEKQKIIFNNQELFDLKAAIDTKDSQTNSELFNYFKEKAFPYLSTKHLGVFPDHVIDMFINGYRLSLTNHGPTPVKRGSKDKRGGIFDAVFTRGVQSKLLTNRHDLKNKTLKEISDLIKQELTEGKALGISHTYANVRINHVINLWGADFDAEGNLEAIYVTDSDTNASIGMKKYFVGVNSNGKVAISAKEIEEDNIGAQVLGLFTLSTGQDIWNQTNLEHHHHHH
B14: PRT-520 (protein)
chain: MVTSVWTKGVTPPTDFRKIVDGNIAYYHAPYKAGQGWYDITKAFDGGDNLLCGAATAGNMLHWWFDQNKEYIEAYLKKHPEKQKIIFNNQELFDLKAAINTKGSQKNSELFNYFRDKAFPNLSARRLGVFPDLVLDMFINGYYLNVTKTQTTDVNRTYQEKDKRGGIFDAVFTRGVQSKLLTSRHDLKNKGLKEISDLIKQELTEGKALGLSHTYANVRINHVINLWGADFDSDGNLKAIYVTDSDTNASIGMKKYFVGVNSAGKVAISAKEIKEDNIGAQVLGLFTLSTGQDIWNQTNLEHHHHHH

Molecular target: pooled human IgG (human IgG1,2,3 and 4)

Protein	Enzyme Activity Endpoint Assay (purified): Fab′2 [ng/µL]	Enzyme Activity Endpoint Assay (purified): Fc [ng/µL]	Enzyme Activity Endpoint Assay (purified): IgG [ng/µL]	Enzyme Activity Endpoint Assay (purified): scIgG [ng/µL]
B1	1340	384	59	0
B2	0	0	0	0
B3	51	29	0	0
B4	300	282	227	481
B5	0	0	0	0
B6	0	13	0	0
B7	143	277	173	973
B8	0	0	0	0
B9	1080	363	0	0
B10	1130	386	0	0
B11	12	17	0	0
B12	376	255	445	0
B13	54	207	362	1020
B14	271	265	470	475
